# From the DeepSol protein solubility set
# Test: soluble on expression in E. coli; label from the status in PepcDB or PDB records
row,Sequence,soluble on expression in E. coli
1,MGHHHHHHSHHRFSINGHFYNHKTSVFTPAYGSVTNVRINSTMTTPQVLKLLLNKFKIENSAEEFALYVVHTSGEKQKLKATDYPLIARILQGPCEQISKVFLMEKDQVEEVTYDVAQYIKFEMPVLKSFIQKLQEEEDREVKKLMRKYTVLRLMIRQRLEEIAETPATI,not soluble
2,LFPSFLKPLAAHALELALNRLLTLDPDTSQALRTLDGQCIALSLKTPAVELQIRVDGECLRVGPVDAAYEMDLKVHGTLAGFLGQLPWLEQVRRAGGAQTGRLRVAGDAELAQRLQQLARRFDPDWQQPFIVVFGELLGVQIAGVLRMTLRQLQRSAVDLAQSAAEFITEESSSVVPRAELEAFYEDVDVLRDDVERLATRLMKLCSEMAA,not soluble
3,MAAWFECKVTYEKVADNGMPKKVVESYLVDADSFTLAEAKMIEEITPFVSMGEFNISNIRKVNYAELFLNEDDKCDRYYRCKVLYVTIDEKNGVEKKTPAFMLVKSDSLPNAVAELEKQMGKGLADYEIASVAETALMDVFQYVPAQ,not soluble
4,MDYDVLILGGGIIGCSVAYELSKYNLNIALIEKDFDIADDVSFVNTAIVYDGSECKDNLMSYLENMGNMMLPEITKKLNVPFKRVGHLTIADNDETVRIIEENYKRAKSRGINNIYLIDEKRAREIEPNYKGEIKKAMYSENIAVTSPYDLAIGFAEIAYDNGVSFRLEEIVLDIQSIAKGFKVTTNKNKFTCRFVINTTPGEHYTIDQDKDYEQKNALKTYYLLLNDEIKEKTSNIVVKLKNEEEFIIQKNTVNGDTLIGINSNNSLGFMKSLKIAKEMINSISRKHVKDIFYDNHNQDRLIIDDSRKNKGYIKVMGNHYGEVTIAPAVSKIICDEIIDKLNCSLNKNFVDKRREFYRFRELSNEERNELISLDKRYGKIVCLCNGISEGEIVDCIRRPLGARTVEGVKRRTGATFGTCHGAYCISKIINILARELEKKPTEIVEDSKNSKVLASRIKEFDRVLEHHHHHH,not soluble
5,MMGMAVSTKLSIDEVNMLEKEDFVTKIGPIFEHSPWVAERAWAHRPFTSAENMYECMLEKVYEADKRLQLALLRAHPDLGTRLEISETSQSEQQRAGLSQLTEEEFAVFAELNKCYVDTFRFPFIMAVRGQTKNSIKEQMRKRLVNDEEQERKTALREVAKIAKFRLADLVVMGSRSLEHHHHHH,soluble
6,MENTVLNLDSDVIHACEAIFQPIRLVYTHAQTPDVSGVSMLEKIQQILPQIAKNAESAEQLRRVPDENIKLLKEIGLHRAFQPKVYGGLEMSLPDFANCIVTLAGACAGTAWAFSLLCTHSHQIAMFSKQLQDEIWLKDPDATASSSIAPFGKVEEVEGGIILNGDYGWSSGCDHAEYAIVGFNRFDADGNKIYSFGVIPRSDYEIVDNWYAQAIKSSGSKMLKLVNVFIPEYRISKAKDMMEGKSAGFGLYPDSKIFYTPYRPYFASGFSAVSLGIAERMIEAFKEKQRNRVRAYTGANVGLATPALMRIAESTHQVAAARALLEKTWEDHRIHGLNHQYPNKETLAFWRTNQAYAVKMCIEAVDRLMAAAGATSFMDNSELQRLFRDAHMTGAHAYTDYDVCAQILGRELMGMEPDPTMV,soluble
7,MGHHHHHHSHMEGTQETYTVAHEENVRFVSEAWQQVQQQLDGGPAGEGGPRPVQYVERTPNPRLQNFVPIDLDEWWGAAVPGENHQLFLVAAGRGRCYTADLSPGEKHGALPTHCAWLGAGHT,not soluble
8,GHMKGLTEKLMILSHQSIKNLLGKVILNYSEENVRENGYDLRICGDKYYELVQGAELPEKKATLREIEFKERAILSANHTYLFESCEEFNMPADLAVLITLKSTLARNGFLAPPTVIDAGYKGKVNVAITAVYNSSLKKGMATHHLIFLKLDKPTERLYNGKYQGGILI,soluble
9,MSLRILLALASLSGNTREVARVIRARCEERGHRVDWIETDLQTLAGQALDPHTYTLFLLGTWTDNAGRTPFEMKRFIVELLELIGKPPSVAVFGTGETQWGQEYYCGAVHRISDFFASRFPRLLIEQMPHGERDALAIVEWTDQVLDQCNKDSDADHYRYVAEGHHHHHH,soluble
10,MKLIFQMGKQPVLEKTILLFILSIVESLKLKVVSLDEAHRYIFNLEVLELLMDRNIDDQVLELIHFGMGLEDIYHVLPEELEHTIEELKWLCIQVLSEYSMHEESEQLIEDIR,not soluble
11,MTTAIGKKTTKLEPFKMERGVKYRDAAKTSVIQVRNIDPDQELLKKPEWMKIKLPTNSAKIDSIKYGMRRHGLHSVCEEASCPNLHECFNHGTATFMIMGAICTRRCPFCDVAHGKPLPLDPYEPRKVAETVQDMKLKYVVITSVDRDDLADRGAAHFAATVREIKALNPECKVEILVPDFRGRVEQAVAILKQNPPDVFNHNLENVPRLYREIRPGADYKWSLELLKIFKQEFPNIPTKSGLMVGLGETNEEILAVMQDLRDHGVTMLTVGQYLQPSRHHLRVERYVPPAEFEMFRSEAEKMGFEHAACGPFVRSSYHADLQAKGELVK,not soluble
12,MPLTPADVHNVAFNKPPIGKRGYNEDEVDQFLDLVEDALVQFQEENEDLKQQVEELEAQVAGGTSSAASSSTAGAATAAASKSVDEAALRKEIEEKLRSEYASKLDDASKAAQKAQNDAKSAQDQLQRAQADAKAARDEAEKAKAEAKSAASSSTTKAAAVGAVGAGTGAAVATGAANVDTHMQAAKVLGLAQEMADRLTSEARSESKSMLDEAREAAEKQIEEANSTSNRTLEDARANAEKQIAEAQNRADTLVNEADAKAKNLVSEAEKKSAATLAASTSRAEAQIRQAEDKANALQADAERKHTETMAAVKEQQNALETRIAELQTFEREYRTRLKSLLEGQLEELNARGSSAPTNNKPSGE,not soluble
13,MGSDKIHHHHHHMKKKDMNKQVKIQDAVAAIILAEGPAGVSTTKVAKRVGIAQSNVYLYFKNKQALIDSVYARETNRILSTTDLDRLSDSTIDVTTRIRLYVQQVYDYSLANPDSLTIIQQIKALNGQGMTISAADADPNNIVANLLTAAIDAKVIKQLPVSLHMGVVFSTIHTHTTNISKGRYAQDQYTFGDIFQMIWDAMKQD,not soluble
14,MSLDDLWQTLPDPAELVTVGDLRGMIHTHSTWSDGGASIREMAEATLTLGHEFLGTADHSRAAYYANGLTIERLREQLKEIRELQRAGLPIVAGSEVDILDDGSLDFPDDVLGELDYVVVSVHSNFTLDAARQTERLIRAVSHPLVTVLGHATGRLLLRRPGYALDLDAVLGACEANGTVVEINANAARLDLDWREALRWRERLKFAINTDAHVPGGLRDARYGVMQARKAGLTPAHVVNSLGRAEFLDFVARQRAARGAPGPADREGHHHHHH,not soluble
15,GPGSRVRDKKDMDASELELRRVQGSLNKLTDKNFDAVVEEALSPDLVLNPLVLKGAVDIIFNKAMAEPVFSGIYAQLCQRIKVYEQDLVAEAAENPTSELGQLMAAVQAGDEDQKNVNGRVRNALVKRCQEFHDSFVKQPPPRNAEAEEQLRKRNMANIKFVGELYMRSLISHRVILAVCSTALVLGFIPSPKLVTTDADLEMMVSLMNVIGKRFDENAGMALNHVPKDAAAAAHPHDTIWRALNSSMNDPRFSRRIRFLIQNLLEWRNDGWKPKESPAQGSSGGSADDSNNTT,not soluble
16,MAPTQAQKVLEAFEDFLKCLDLESYQEKYRPIKTVEQDLPRELNPLPDLYDHYWKPNGNTLHFPDFETFFDQWWEKRLRPLNEFIRKYFWGCSYEFVRLGLEARLYRTAVSIWTQFHFCYRWNASCQLRLTATWELDAQGIDAQIQAEDRLIGIQIKKETYRSEAREGNRFLRRREHSALLEVPYTLQSPEELERKAQRARTREEAYRLWVKIAHHLERLPNGFVIFRESYVKDLENFLKQNATTLSGLIPWDKVAREALTGP,soluble
17,MGSDKIHHHHHHMGETVPEKAQGAIRHGGNLGKARLMFRQAPEPWIDLSTGINPHSYPHSPIPASAFARLPEPGAAEELKQLAAAHFGAPSAQHVTLSPGTQMLMPLLAQIAINRGAQSGAVLSPAYAEHARTARMAGLTVTEVENIGDLSAYGYAVVVNPNNPDGRITDREALLALAGTIGRKGGLLVVDEAFIETGGAESLAVATNGEALVVLRSFGKFYGMAGVRLGFAIAHPEIAAELEARLGPWAVSGPALHIATEALADREWQSSMRLRLAEEARRMNELLEKAGLKIAGGTSLFTLVRDERSRALFGHLGRRGILVRIFDERPDDMRFGLPGSEADWQRVEEALRSFDHSSKV,not soluble
